This note sets out measurements from patent EP4644549A1, “ANTIMICROBIAL PEPTIDE AND METHOD FOR PRODUCING SAME” (Sumitomo Chemical Company, Limited, priority 2022, dated 2025).

Data set [1] deals with Lactobacillus sakei (NBRC15893). The experiment in a line: Wide pH-range stability test (spot-on-lawn antimicrobial activity after incubation in buffer). In kind it is physicochemical. Also on record: key: A: Good activity; B: Slight influence on activity; C: No activity. As to conditions: ten times the lowest concentration of Table 3, A = spot diameter 80% or more of control in water. The procedure: Antimicrobial activity of the antimicrobial peptide was evaluated by a spot-on-lawn method that involved spotting 10 µL of a test liquid 13 on the test bacteria (lawn) (on a soft agar medium 11) (Fig. 1). As the test bacteria, Lactobacillus sakei (NBRC15893) was used. The specific procedure is as follows. Firstly, the test bacteria that were cultured overnight were mixed and diluted with Lactobacilli AOAC agar (soft agar medium 11) in a density of 4×10^7 CFU/mL, and was spread over an MRS plate containing 2% agar (an agar medium 12). Test liquid 13 was spotted thereon, and incubated overnight at 30°C, followed by evaluation of the size of a growth inhibition circle 14 (Fig. 1). It can be determined that the larger the growth inhibition circle, the higher the antimicrobial activity. The fraction with highest antimicrobial activity as determined in the antimicrobial activity test was regarded as a purified active fraction and used in Experiment 4 and Experiment 5 described below. For the polypeptides as set forth in SEQ ID NOs: 1 to 5, 13, and 14 in Table 3, evaluation was carried out to see if they had antimicrobial activity over a wide range of pH. As a Comparative Example, a commercially available nisin A (manufactured by Sigma-Aldrich) was used. Firstly, each peptide was dissolved in the following buffer to prepare a solution of a concentration ten times the lowest concentration specified in Table 3: sodium phosphate buffer (50 mM, pH4), 1x phosphate buffer saline (pH7.4), ammonium chloride-ammonia buffer (50 mM, pH10.0). […] Antimicrobial activity was evaluated based on the size of the spot (the size of the growth inhibition circle). When the size of the spot was equivalent to that of the control (when the diameter of the spot was 80% or more of the control), it was rated as A, and when the size was relatively small but antimicrobial activity was still detected, it was rated as B. When the growth inhibition circle was not observed, it was rated as C. It can be determined that the peptides rated as A or B are stable at the test pHs. […]

Data set [2] shares this test system. The experiment in a line: Thermal stability test (spot-on-lawn antimicrobial activity after heat treatment). As to conditions: in water, ten times the lowest concentration of Table 3, A = spot diameter 80% or more of control with no heat treatment. Also on record: key: A: Good activity; B: Slight influence on activity; C: No activity. In kind it is physicochemical. The procedure: Antimicrobial activity of the antimicrobial peptide was evaluated by a spot-on-lawn method that involved spotting 10 µL of a test liquid 13 on the test bacteria (lawn) (on a soft agar medium 11) (Fig. 1). As the test bacteria, Lactobacillus sakei (NBRC15893) was used. The specific procedure is as follows. Firstly, the test bacteria that were cultured overnight were mixed and diluted with Lactobacilli AOAC agar (soft agar medium 11) in a density of 4×10^7 CFU/mL, and was spread over an MRS plate containing 2% agar (an agar medium 12). Test liquid 13 was spotted thereon, and incubated overnight at 30°C, followed by evaluation of the size of a growth inhibition circle 14 (Fig. 1). It can be determined that the larger the growth inhibition circle, the higher the antimicrobial activity. The fraction with highest antimicrobial activity as determined in the antimicrobial activity test was regarded as a purified active fraction and used in Experiment 4 and Experiment 5 described below. For the polypeptides as set forth in SEQ ID NOs: 1 to 5, 13, and 14 in Table 3, evaluation was carried out to see if they had antimicrobial activity after heat treatment. As a Comparative Example, a commercially available nisin A (manufactured by Sigma-Aldrich) was used. Firstly, each peptide was dissolved in water to prepare a solution of a concentration ten times the lowest concentration specified in Table 3. The test solution thus prepared was subjected to heat treatment at 80°C for 30 minutes, or at 100°C for 30 minutes, or at 121°C for 15 minutes. […] Antimicrobial activity was evaluated based on the size of the spot (the size of the growth inhibition circle); when the size of the spot was equivalent to that of the control (when the diameter of the spot was 80% or more of the control), it was rated as A, and when the size was relatively small but activity was still detected, it was rated as B. When the spot was not observed, it was rated as C. It can be determined that the peptides rated as A or B are stable at the test temperatures. […]

For a further data set, the system named is Candida albicans. The experiment in a line: Antimicrobial activity test in liquid culture (growth by OD630). In kind it is cell-based. Also on record: key: +: Antimicrobial activity observed; -: No antimicrobial activity observed. The settings on record: Test conc. 25 µM; culturing 24 to 48 hours. As for the experimental part: (§1) As a Comparative Example, a commercially available nisin A (manufactured by Sigma-Aldrich) was used. Firstly, each peptide was dissolved in MRS medium to prepare a solution of a concentration of 20 µM to 1000 µM. From the resultant, 10 µl was taken and mixed with various test bacteria and 90 µl of medium intended for culturing the test bacteria, followed by culturing for 24 hours to 48 hours. After culturing, OD630 was measured to check the number of bacteria. When OD630 increased or turbidity was visually observed as compared to the culture liquid before culturing, it can be determined that the test bacteria had grown. […] In the "SEQ ID NO or substance name of peptide" section in Table 5, each of "SEQ ID NO: 3 & SEQ ID NO: 4" and "SEQ ID NO: 13 & SEQ ID NO: 14" means that a combination of the two types of peptides were used in equimolar amounts. The results in Table 5 indicate that the polypeptides as set forth in SEQ ID NOs: 1 to 5, 13, and 14 were effective against gram-positive bacteria and some of these polypeptides were effective against gram-negative bacteria such as E. coli and fungi such as C. albicans.

A further data set deals with Escherichia coli. Described as above. More on the design: key: +: Antimicrobial activity observed; -: No antimicrobial activity observed. In kind it is cell-based. As to conditions: Test conc. 25 µM; culturing 24 to 48 hours. As for the experimental part: as §1
Another data set deals with Lactobacillus sakei. The description is as above. The class given is cell-based. Also on record: key: +: Antimicrobial activity observed; -: No antimicrobial activity observed. As to conditions: Test conc. 25 µM; culturing 24 to 48 hours. As for the experimental part:
as §1

A further data set concerns Staphylococcus aureus. The description is as above. The class given is cell-based. More on the design: key: +: Antimicrobial activity observed; -: No antimicrobial activity observed. As to conditions: Test conc. 25 µM; culturing 24 to 48 hours. The procedure: as §1
The next data set has as its system Streptococcus uberis. The data set is described as above. The class given is cell-based. Also on record: key: +: Antimicrobial activity observed; -: No antimicrobial activity observed. The settings on record: Test conc. 25 µM; culturing 24 to 48 hours. The procedure: as §1

Ends that are not written are not given here.

On to “nisin A (ITSISLCTPGCKTGALMGCNMKTATCHCSIHVSK; thioether (positions not given here); not fully specified (some residues, bridges); also: lantibiotic: thioether rings and dehydro residues not placed; UniProt P13068 24-57, looked up) [antimicrobial peptide produced by Lactococcus lactis]”, for which, in data set [1] (1x phosphate buffer saline (pH7.4), 27°C for 24 hours), the “pH Stability pH7” value is reported as “C”. Besides, the “pH Stability pH10” value in data set [1] (ammonium chloride-ammonia buffer 50 mM pH10.0, 27°C for 24 hours) is “C”. The “pH Stability pH4” value in data set [1] (sodium phosphate buffer 50 mM pH4, 27°C for 24 hours) is given as “A”. Besides, the “Thermostability 80°C” value in data set [2] (80°C for 30 minutes) is “C”. The “Thermostability 100°C” value in data set [2] (100°C for 30 minutes) is “C”. Further, the “Thermostability 121°C” value in data set [2] (121°C for 15 minutes (autoclave)) was “C”. In the data set on Candida albicans, the “Antimicrobial activity, test bacteria Candida albicans” value was “-”. Moreover, the “Antimicrobial activity, test bacteria Escherichia coli” value in the data set on Escherichia coli was “-”. Moreover, the “Antimicrobial activity, test bacteria Lactobacillus sakei” value in the data set with Lactobacillus sakei is “+”. Moreover, in the data set with Staphylococcus aureus, the “Antimicrobial activity, test bacteria Staphylococcus aureus” value is listed as “+”. Besides, the “Antimicrobial activity, test bacteria Streptococcus uberis” value in the data set on Streptococcus uberis is listed as “+”.
